Test results: patent publication US20070077617

Assays:
[1] = target: motilin fusion protein PMT7D
fusion protein PRMT = settings: scale: relative
[2] = target: motilin fusion protein PMT6D
[3] = target: human calcitonin precursor fusion protein PCT
Chain of human calcitonin precursor fusion protein PCT (chain, as listed by the source): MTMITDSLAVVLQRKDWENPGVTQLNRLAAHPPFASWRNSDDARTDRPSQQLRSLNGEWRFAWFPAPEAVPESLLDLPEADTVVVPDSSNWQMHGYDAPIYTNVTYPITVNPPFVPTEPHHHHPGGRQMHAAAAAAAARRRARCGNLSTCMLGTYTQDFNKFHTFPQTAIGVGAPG

Chain of motilin fusion protein PMT6D (chain, as listed by the source): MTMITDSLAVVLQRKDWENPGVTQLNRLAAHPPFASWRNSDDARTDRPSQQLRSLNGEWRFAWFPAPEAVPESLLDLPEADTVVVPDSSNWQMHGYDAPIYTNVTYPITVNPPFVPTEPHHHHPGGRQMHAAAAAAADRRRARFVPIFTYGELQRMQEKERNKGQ
Chain of fusion protein PMT (chain, as listed by the source): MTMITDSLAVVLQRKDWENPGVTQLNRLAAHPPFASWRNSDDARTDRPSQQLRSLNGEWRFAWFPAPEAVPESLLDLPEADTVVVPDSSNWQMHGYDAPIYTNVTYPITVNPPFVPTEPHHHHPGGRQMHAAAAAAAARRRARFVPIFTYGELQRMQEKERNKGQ
Chain of fusion protein PRL (chain, as listed by the source): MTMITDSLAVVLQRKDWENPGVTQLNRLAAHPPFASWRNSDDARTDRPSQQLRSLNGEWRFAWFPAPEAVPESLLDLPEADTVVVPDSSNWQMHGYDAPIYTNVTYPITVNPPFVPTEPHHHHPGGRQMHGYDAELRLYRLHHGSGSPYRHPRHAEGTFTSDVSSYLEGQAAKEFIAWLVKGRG
Chain of fusion protein PRN (chain, as listed by the source): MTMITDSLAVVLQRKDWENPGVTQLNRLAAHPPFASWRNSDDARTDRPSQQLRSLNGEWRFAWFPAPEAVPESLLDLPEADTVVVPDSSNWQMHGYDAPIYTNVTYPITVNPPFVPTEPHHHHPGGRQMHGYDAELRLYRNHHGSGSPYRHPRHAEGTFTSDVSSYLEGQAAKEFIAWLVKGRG
Chain of fusion protein PRF (chain, as listed by the source): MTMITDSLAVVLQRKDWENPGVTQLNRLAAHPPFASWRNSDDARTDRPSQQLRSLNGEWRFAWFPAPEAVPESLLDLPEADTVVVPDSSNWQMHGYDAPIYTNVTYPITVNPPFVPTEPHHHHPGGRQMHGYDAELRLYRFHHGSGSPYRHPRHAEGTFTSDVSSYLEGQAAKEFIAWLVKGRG
Chain of fusion protein PRK (chain, as listed by the source): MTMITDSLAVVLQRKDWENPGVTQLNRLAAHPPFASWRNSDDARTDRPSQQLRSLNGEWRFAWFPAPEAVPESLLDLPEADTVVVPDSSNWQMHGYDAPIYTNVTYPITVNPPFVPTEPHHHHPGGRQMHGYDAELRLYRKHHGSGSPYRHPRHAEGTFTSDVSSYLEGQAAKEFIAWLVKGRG
Chain of fusion protein PRQ (chain, as listed by the source): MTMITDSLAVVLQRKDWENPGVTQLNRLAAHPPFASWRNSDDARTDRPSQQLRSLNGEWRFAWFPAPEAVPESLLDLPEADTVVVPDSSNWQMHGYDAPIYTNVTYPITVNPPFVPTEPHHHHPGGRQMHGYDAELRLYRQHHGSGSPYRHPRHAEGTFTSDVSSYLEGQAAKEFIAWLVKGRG
Chain of fusion protein PRS (chain, as listed by the source): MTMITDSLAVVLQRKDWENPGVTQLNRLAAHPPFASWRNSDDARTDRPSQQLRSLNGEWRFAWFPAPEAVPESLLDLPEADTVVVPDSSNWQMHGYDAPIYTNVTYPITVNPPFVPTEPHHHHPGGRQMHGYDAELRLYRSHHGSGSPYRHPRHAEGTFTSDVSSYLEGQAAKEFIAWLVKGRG
Chain of fusion protein PRG (chain, as listed by the source): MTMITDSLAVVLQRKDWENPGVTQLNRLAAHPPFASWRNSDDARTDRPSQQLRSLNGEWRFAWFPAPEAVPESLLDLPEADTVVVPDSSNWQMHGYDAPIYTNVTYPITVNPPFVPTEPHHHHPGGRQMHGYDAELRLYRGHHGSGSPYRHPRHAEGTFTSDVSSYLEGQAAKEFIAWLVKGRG
Chain of fusion protein PRR (chain, as listed by the source): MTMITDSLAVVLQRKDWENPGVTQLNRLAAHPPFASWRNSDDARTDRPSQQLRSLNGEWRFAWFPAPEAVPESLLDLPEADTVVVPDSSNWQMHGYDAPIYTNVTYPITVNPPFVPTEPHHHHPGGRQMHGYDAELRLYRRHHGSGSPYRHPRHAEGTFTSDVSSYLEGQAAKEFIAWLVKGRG
Chain of fusion protein PRM (chain, as listed by the source): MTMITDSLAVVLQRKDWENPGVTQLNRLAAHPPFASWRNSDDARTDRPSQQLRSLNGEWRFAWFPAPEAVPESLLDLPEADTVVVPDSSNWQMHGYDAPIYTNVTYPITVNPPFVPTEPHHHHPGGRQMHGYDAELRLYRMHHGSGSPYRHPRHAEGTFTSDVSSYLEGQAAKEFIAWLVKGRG
Chain of fusion protein PRC (chain, as listed by the source): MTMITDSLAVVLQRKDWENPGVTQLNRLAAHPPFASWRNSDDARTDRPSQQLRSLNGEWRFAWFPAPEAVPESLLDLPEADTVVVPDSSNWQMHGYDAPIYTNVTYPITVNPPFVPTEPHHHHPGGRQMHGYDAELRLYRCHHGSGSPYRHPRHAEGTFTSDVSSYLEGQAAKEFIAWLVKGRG
Chain of fusion protein PRE (chain, as listed by the source): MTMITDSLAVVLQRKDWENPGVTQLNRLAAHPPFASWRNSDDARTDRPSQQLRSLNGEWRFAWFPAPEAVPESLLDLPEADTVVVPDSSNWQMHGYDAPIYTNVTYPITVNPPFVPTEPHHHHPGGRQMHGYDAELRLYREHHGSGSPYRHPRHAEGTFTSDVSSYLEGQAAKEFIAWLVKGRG
Chain of fusion protein PRY (chain, as listed by the source): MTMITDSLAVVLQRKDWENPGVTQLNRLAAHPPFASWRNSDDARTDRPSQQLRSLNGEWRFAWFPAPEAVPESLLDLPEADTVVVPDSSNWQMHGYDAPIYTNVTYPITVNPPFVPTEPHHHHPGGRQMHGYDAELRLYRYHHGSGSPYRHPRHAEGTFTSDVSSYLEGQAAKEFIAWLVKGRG
Chain of fusion protein PRD (chain, as listed by the source): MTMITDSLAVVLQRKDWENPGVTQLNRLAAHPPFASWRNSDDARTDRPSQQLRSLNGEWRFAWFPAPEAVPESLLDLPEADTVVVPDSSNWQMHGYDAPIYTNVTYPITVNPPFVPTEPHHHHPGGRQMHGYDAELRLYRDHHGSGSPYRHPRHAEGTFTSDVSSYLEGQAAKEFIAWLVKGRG
Chain of fusion protein PRH (chain, as listed by the source): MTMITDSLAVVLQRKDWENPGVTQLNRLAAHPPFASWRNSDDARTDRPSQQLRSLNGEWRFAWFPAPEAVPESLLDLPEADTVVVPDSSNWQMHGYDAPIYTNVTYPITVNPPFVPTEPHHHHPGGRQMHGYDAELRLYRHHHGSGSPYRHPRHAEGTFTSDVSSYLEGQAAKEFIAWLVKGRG
Chain of fusion protein PRI (chain, as listed by the source): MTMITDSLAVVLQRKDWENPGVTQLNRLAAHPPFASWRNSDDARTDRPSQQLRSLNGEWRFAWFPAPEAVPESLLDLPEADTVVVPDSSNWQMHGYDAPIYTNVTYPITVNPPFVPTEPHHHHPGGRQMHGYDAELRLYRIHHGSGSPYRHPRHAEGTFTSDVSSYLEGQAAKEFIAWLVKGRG
Chain of fusion protein PRT (chain, as listed by the source): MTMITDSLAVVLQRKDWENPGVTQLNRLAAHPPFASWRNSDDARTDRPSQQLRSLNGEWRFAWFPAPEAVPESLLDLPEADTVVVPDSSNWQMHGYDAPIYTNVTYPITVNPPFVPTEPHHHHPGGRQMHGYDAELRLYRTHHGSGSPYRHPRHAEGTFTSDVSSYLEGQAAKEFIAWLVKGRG
Chain of fusion protein PRA (chain, as listed by the source): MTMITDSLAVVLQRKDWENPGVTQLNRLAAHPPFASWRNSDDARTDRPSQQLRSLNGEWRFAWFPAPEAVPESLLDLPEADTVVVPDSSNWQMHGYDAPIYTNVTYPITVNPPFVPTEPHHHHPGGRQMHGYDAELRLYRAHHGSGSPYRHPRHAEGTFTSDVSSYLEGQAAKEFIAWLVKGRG
Chain of motilin fusion protein PMT7D (chain, as listed by the source): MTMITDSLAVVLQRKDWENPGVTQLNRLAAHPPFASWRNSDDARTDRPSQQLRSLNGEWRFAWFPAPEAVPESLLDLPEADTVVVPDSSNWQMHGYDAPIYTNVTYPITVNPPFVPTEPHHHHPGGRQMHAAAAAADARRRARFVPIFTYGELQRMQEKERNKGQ
Chain of fusion protein PRW (chain, as listed by the source): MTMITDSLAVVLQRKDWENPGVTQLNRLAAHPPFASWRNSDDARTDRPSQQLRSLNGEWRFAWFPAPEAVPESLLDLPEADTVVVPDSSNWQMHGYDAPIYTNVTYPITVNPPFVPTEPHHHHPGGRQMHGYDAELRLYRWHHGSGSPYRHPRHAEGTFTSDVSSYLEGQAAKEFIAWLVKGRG
Chain of fusion protein PRMT (chain, as listed by the source): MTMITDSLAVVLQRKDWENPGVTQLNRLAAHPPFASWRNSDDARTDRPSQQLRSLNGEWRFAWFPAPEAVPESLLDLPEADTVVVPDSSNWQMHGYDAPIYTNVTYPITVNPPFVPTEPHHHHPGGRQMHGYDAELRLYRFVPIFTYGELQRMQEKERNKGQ

Protein | relative cleavage efficiency (fusion protein PRL) | relative cleavage efficiency (fusion protein PRT) | relative cleavage efficiency (fusion protein PRQ) | relative cleavage efficiency (fusion protein PRK) | relative cleavage efficiency (fusion protein PRR) | relative cleavage efficiency (fusion protein PRM) | relative cleavage efficiency (fusion protein PRC) | relative cleavage efficiency (fusion protein PRN) | relative cleavage efficiency (fusion protein PRD) | relative cleavage efficiency (fusion protein PRH) | relative cleavage efficiency (fusion protein PRG) | relative cleavage efficiency (fusion protein PRS) | relative cleavage efficiency (fusion protein PRF) | relative cleavage efficiency (fusion protein PRW) | relative cleavage efficiency (fusion protein PRE) | relative cleavage efficiency (fusion protein PRP) | relative cleavage efficiency (fusion protein PRI) | relative cleavage efficiency (fusion protein PRA) | relative cleavage efficiency (fusion protein PRY) | also measured
OmpT protease variant OmpT D97M (protein) STETLSFTPDNINADISLGTLSGKTKERVYLAEEGGRKVSQLDWKFNNAAIIKGAINWDLMPQISIGAAGWTTLGSRGGNMVDQDWMDSSNPGTWTMESRHPDTQLNYANEFDLNIKGWLLNEPNYRLGLMAGYQESRYSFTARGGSYIYSSEEGFRDDIGSFPNGERAIGYKQRFKMPYIGLTGSYRYEDFELGGTFKYSGWVESSDNDEHYDPGKRITYRSKVKDQNYYSVAVNAGYYVTPNAKVYVEGAWNRVTNKKGNTSLYDHNNNTSDYSKNGAGIENYNFITTAGLKYTF | less than 3% | < 3% | less than 3% | < 3% | < 3% | < 3% | 6.5% | < 3% | less than 3% | less than 3% | less than 3% | 7.1% | 7.7% | less than 3% | less than 3% | less than 3% | < 3% | 6% | 6.2% | by-product RRAR-motilin [1]: no peak for RRAR-motilin was detected with PMT7D; motilin released [1]: Motilin was released at 280, 250 and 370 µg/mL from the motilin fusion proteins PMT, PMT6D and PMT7D, respectively; relative cleavage efficiency: Motilin (Arg^140-Phe^141) (fusion protein PRMT): 22; amount of motilin released, against PRMT (fusion protein PMT): the amount of motilin released from PMT was 3.5 times higher than from PRMT; by-product AR-motilin (motilin = 100) (fusion protein PMT): By-products were yielded at 2.8 and 33% with PMT; by-product RRAR-motilin (motilin = 100) (fusion protein PMT): By-products were yielded at 2.8 and 33% with PMT; digestion (SDS-PAGE), co-expressed inclusion bodies (fusion protein PMT): reaction of 1440 minutes, i.e. 24 hours, caused virtually complete digestion of the fusion protein PMT; motilin released (fusion protein PMT): Motilin was released at 280, 250 and 370 µg/mL from the motilin fusion proteins PMT, PMT6D and PMT7D, respectively; relative cleavage efficiency: Motilin (Arg^143-Phe^144) (fusion protein PMT; scale: relative): 78; relative cleavage efficiency: RRAR-motilin (Arg^139-Arg^140) (fusion protein PMT; scale: relative): 24; by-product AR-motilin (motilin = 100) [2]: at 3.5 and 16% with PMT6D; by-product RRAR-motilin (motilin = 100) [2]: at 3.5 and 16% with PMT6D; motilin released [2]: Motilin was released at 280, 250 and 370 µg/mL from the motilin fusion proteins PMT, PMT6D and PMT7D, respectively
OmpT protease variant OmpT D97H (protein) STETLSFTPDNINADISLGTLSGKTKERVYLAEEGGRKVSQLDWKFNNAAIIKGAINWDLMPQISIGAAGWTTLGSRGGNMVDQDWMDSSNPGTWTHESRHPDTQLNYANEFDLNIKGWLLNEPNYRLGLMAGYQESRYSFTARGGSYIYSSEEGFRDDIGSFPNGERAIGYKQRFKMPYIGLTGSYRYEDFELGGTFKYSGWVESSDNDEHYDPGKRITYRSKVKDQNYYSVAVNAGYYVTPNAKVYVEGAWNRVTNKKGNTSLYDHNNNTSDYSKNGAGIENYNFITTAGLKYTF | less than 3% | 3% | less than 3% | 4.5% | 4.6% | 4.6% | 11% | 3.5% | less than 3% | less than 3% | less than 3% | 8.7% | 4.1% | less than 3% | less than 3% | less than 3% | 3.1% | 8.4% | < 3% | cleavage (HPLC, mass analysis) [3]: PCT was cleaved at Arg^139-Arg^140. Arg^141-Ala^142 and Arg^143-Cys^144 by D97H, releasing RRAR-CT, AR-CT and human calcitonin precursor
